Measured values from PMC5787804, “Communication between N terminus and loop2 tunes Orai activation” (The Journal of Biological Chemistry, 2017).

Molecular target: T1, Orai3-L2 (aa 111–161, mutation C118G) (human, UniProt Q9BRQ5 111-161, C118G, conjugated to amino-functionalized AFM cantilever tips via a flexible NHS-PEG18-acetal cross-linker)
T1 construct: human Orai3 loop2, aa 111–161; also called Orai3-loop2; source: synthetic peptide (custom-synthesized, >95% purity, Synpeptide)
Experiment: AFM single-molecule force spectroscopy; loop2 peptide tethered to the cantilever tip via a PEG linker, Orai1-NT peptide immobilised on silicon chips; room temperature, HBS buffer (150 mM NaCl, 5 mM Hepes); pulling velocity 50-8000 nm/s; koff from the Bell-Evans single energy barrier model
Conditions: both partners purified

B1: Orai1-NT 70–91 (peptide)
peptide: SMQALSWRKLYLSRAKLKASSRC
modifications: added C-terminal cysteine for site-specific coupling; immobilized on silicon chips via NHS-PEG27-maleimide linkers
notes: human Orai1 N terminus, aa 70–91; added C-terminal cysteine for site-specific coupling (told in words); also called Orai1 70–91; non-truncated Orai1 NT; source: synthetic peptide (custom-synthesized, >95% purity, DgPeptides)
Q: Does B1 bind?
A: binds
